Measured values taken from patent US20200317768A1 (published 2020).

What was measured:
Experiment in all cases: SPR (BIACORE), antibody captured on chip, FcγR as analyte, 25 C; KD of SG1 divided by KD of the variant
[1] = target: T1, human FcγRIIaR extracellular domain, His-tagged (human, UniProt P12318 34-217)
T1 construct: also called human FcγRIIa (type R); FcgRIIaR; not shown: His-tag added to the C-terminus
T1 chain: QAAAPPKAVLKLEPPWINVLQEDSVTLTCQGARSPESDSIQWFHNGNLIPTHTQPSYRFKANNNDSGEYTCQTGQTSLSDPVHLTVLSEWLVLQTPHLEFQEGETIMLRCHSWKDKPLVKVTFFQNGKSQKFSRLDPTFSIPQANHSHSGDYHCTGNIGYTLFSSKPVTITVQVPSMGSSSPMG
Description: (§1) After the measurement, the antibody captured on the chip was washed off by allowing reaction with 10 mM glycine-HCl, pH1.5 and 25 mM NaOH so that the chip was regenerated and used repeatedly. The sensorgrams obtained as measurement results were analyzed by the 1:1 Langmuir binding model using the BIACORE® Evaluation Software to calculate the binding rate constant ka (L/mol/s) and dissociation rate constant kd (l/s), and the dissociation constant KD (mol/L) was calculated from these values. […] Regarding such interactions, KD values were calculated using the following 1:1 binding model described in BIACORE® T100 Software Handbook BR1006-48 Edition AE.
(§2) The behavior of interacting molecules according to the 1:1 binding model on BIACORE® can be described by Equation 1: Req=C·R max/(KD+C)+RI, wherein, Req is a plot of steady-state binding levels to analyte concentration. C is concentration, RI is bulk refractive index contribution in the sample, and Rmax is analyte binding capacity of the surface. When this equation is rearranged, KD can be expressed as Equation 2: KD=C·Rmax/(Req−RI)−C. KD can be calculated by substituting the values of Rmax, RI, and C into Equation 1 or Equation 2. From the current measurement conditions, RI=0, C=2 μmol/L can be used.

[2] = target: T2, human FcγRIIb extracellular domain, His-tagged (human, UniProt P31994 43-217)
T2 construct: also called FcgRIIb (human); not shown: His-tag added to the C-terminus
T2 sequence: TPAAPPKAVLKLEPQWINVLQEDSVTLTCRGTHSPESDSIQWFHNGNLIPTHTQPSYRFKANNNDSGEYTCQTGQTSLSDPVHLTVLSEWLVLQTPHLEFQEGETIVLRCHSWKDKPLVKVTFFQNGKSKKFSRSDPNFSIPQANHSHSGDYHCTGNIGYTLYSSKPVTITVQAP
Description: as §1, §2

[3] = target: T3, human FcγRIIIaV extracellular domain, His-tagged (human, UniProt P08637 17-208)
T3 construct: also called human FcγRIIIa (allotype V158); FcgRIIIaV; not shown: His-tag added to the C-terminus
Description: as §1, §2

[4] = target: T4, cynomolgus monkey FcγRIIa1 extracellular domain, His-tagged (cynomolgus monkey)
T4 construct: also called cyno FcγRIIa1; FcgRIIa1; not shown: His-tag added to the C-terminus
T4 chain: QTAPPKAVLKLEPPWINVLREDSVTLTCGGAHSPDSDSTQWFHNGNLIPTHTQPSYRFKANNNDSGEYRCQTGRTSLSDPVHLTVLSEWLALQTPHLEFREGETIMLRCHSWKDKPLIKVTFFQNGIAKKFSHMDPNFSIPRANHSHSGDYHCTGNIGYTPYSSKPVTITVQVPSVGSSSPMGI
Description: as §1, §2

[5] = target: T5, cynomolgus monkey FcγRIIa2 extracellular domain, His-tagged (cynomolgus monkey)
T5 construct: also called cyno FcγRIIa2; FcgRIIa2; not shown: His-tag added to the C-terminus
T5 chain: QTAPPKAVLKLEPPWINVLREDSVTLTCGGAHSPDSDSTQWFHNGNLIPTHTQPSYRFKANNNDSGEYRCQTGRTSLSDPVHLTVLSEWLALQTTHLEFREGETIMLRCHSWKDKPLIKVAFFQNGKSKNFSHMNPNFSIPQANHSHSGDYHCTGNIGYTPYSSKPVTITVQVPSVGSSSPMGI
Description: as §1, §2

[6] = target: T6, cynomolgus monkey FcγRIIa3 extracellular domain, His-tagged (cynomolgus monkey)
T6 construct: also called cyno FcγRIIa3; FcgRIIa3; not shown: His-tag added to the C-terminus
T6 chain: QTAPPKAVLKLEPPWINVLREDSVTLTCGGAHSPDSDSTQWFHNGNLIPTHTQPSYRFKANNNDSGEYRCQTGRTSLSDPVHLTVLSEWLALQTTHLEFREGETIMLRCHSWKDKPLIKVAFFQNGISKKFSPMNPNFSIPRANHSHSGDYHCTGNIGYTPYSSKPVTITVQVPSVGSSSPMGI
Description: as §1, §2

[7] = target: T7, cynomolgus monkey FcγRIIb extracellular domain, His-tagged (cynomolgus monkey)
T7 construct: also called cyno FcγRIIb; cynoFcγRIIb; not shown: His-tag added to the C-terminus
T7 chain: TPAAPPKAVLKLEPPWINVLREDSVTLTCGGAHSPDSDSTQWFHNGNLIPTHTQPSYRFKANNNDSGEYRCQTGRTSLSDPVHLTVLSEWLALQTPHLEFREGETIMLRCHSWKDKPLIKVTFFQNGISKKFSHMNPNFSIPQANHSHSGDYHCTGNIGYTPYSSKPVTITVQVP
Description: as §1, §2

[8] = target: T8, cynomolgus monkey FcγRIIIaS extracellular domain, His-tagged (cynomolgus monkey, UniProt A3RFZ7 21-206 (rhesus entry))
T8 construct: also called cyno FcγRIIIaS; FcgRIIIaS; not shown: His-tag added to the C-terminus
Description: as §1, §2

[9] = target: T9, human FcγRIIaH extracellular domain, His-tagged (human, UniProt P12318 34-217)
T9 construct: also called human FcγRIIa (type H); FcgRIIaH; not shown: His-tag added to the C-terminus
T9 sequence: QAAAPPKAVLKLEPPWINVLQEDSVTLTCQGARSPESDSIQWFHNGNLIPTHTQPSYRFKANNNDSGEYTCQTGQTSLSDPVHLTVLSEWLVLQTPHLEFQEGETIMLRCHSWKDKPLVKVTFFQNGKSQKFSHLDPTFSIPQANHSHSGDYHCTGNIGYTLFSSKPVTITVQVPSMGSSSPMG
Description: as §1, §2

T8 sequence (A3RFZ7 21-206): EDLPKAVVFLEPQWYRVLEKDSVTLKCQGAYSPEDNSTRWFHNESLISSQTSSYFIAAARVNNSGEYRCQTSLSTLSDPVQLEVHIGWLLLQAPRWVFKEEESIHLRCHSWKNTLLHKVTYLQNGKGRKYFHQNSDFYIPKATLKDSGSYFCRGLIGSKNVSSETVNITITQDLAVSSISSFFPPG
T3 sequence (P08637 17-208 F176V): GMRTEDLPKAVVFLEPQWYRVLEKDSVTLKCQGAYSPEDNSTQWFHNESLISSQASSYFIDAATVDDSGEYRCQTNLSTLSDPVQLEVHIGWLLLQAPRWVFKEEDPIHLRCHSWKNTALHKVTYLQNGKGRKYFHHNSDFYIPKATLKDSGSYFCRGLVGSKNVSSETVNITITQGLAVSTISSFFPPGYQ

B1: M103205H795-MY329 / M103202L889-SK1 (antibody, human IgG1, kappa)
heavy: QVTLKESGPVLVKPTETLTLTCTVSGIDLSHDDISWVRQAPGKGLEWVGIISYAGSTYYASWAKGRLTISKDTSKNQVVLTMTNMDPVDTATYYCARGVPAYSHGGDLWGQGTLVTVSSASTKGPSVFPLAPSSKSTSGGTAALGCLVKDYFPEPVTVSWNSGALTSGVHTFPAVLQSSGLYSLSSVVTVPSSSLGTQTYICNVNHKPSNTKVDKKVEPKSCDKTHTCPPCPAPELLDGPSVFLFPPKPKDTLMISRTPEVTCVVVDVSDEDPEVKFNWYVDGVEVHNAKTKPREELYNSTYRVVSVLTVLHQDWLNGKEYKCKVSNKALPKPIEKTISKAKGQPREPQVYTLPPSREEMTKNQVSLTCLVKGFYPSDIAVEWESNGQPENNYKTTPPVLDSDGSFFLYSKLTVDKSRWQQGNVFSCSVMHEALHNHYTQKSLSLSP
light: DIVMTQSPATLSLSPGERATLSCTSSQSVYHANWLSWFQQKPGQPPKLLIYWASTLAYGVPSRFSGSGSGTDFTLTISSLQPEDAATYYCAGGYGGGRYAFGQGTKVEIKRTVAAPSVFIFPPSDEQLKSGTASVVCLLNNFYPREAKVQWKVDNALQSGNSQESVTEQDSKDSTYSLSSTLTLSKADYEKHKVYACEVTHQGLSSPVTKSFNRGEC
notes: Fc variant made by introducing the substitutions into M103205H795-SG1; the list of substitutions runs over r151c2 and r152c2; Expressed with M103202L889-SK1 as light chain
KD fold for humanFcgRs (SG1 = 1) [1]: 5.2 fold
KD fold for humanFcgRs (SG1 = 1) [2]: 28.8 fold
KD fold for humanFcgRs (SG1 = 1) [3]: 0.13 fold
KD fold for cynoFcgRs (SG1 = 1) [4]: 1.7 fold
KD fold for cynoFcgRs (SG1 = 1) [5]: 1.6 fold
KD fold for cynoFcgRs (SG1 = 1) [6]: 4.6 fold
KD fold for cynoFcgRs (SG1 = 1) [7]: 3.1 fold
KD fold for cynoFcgRs (SG1 = 1) [8]: 0.16 fold
KD fold for humanFcgRs (SG1 = 1) [9]: 2.6 fold
